The chains are these.
B1: hu CD45 HC2 + LC1 (antibody, V domains shown)
VH: EVQLLESGGGLVQPGGSLRLSCAASGFDFSRYWMSWVRQAPGKGLEWVSEINPTSSTINYADSVKGRFTISRDNSKNTLYLQMNSLRAEDTAVYYCARGNYYRYGDAMDYWGQGTMVTVSS
VL: DIVMTQSPDSLAVSLGERATINCKSSKSVSTSGYSYLHWYQQKPGQPPKLLIYLASNLESGVPDRFSGSGSGTDFTLTISSLQAEDVAVYYCQHSRELPFTFGQGTKLEIK
B2: hu CD45 HC2 + LC4 (antibody, V domains shown)
VH: B1 VH
VL: DIQMTQSPSSLSASVGDRVTITCRASKSVSTSGYSYLHWYQQKPGKAPKLLIYLASNLQSGVPSRFSGSGSGTDFTLTISSLQPEDFATYYCQHSRELPFTFGQGTKLEIK
B3: hu CD45 HC4 + LC3 (antibody, V domains shown)
VH: B1 VH with L5V, Q13K, S75A, T78S
VL: EIVLTQSPATLSLSPGERATLSCRASKSVSTSGYSYLHWYQQKPGQAPRLLIYLASNLATGIPARFSGSGSGTDFTLTISSLEPEDFAVYYCQHSRELPFTFGQGTKLEIK
B4: hu CD45 HC3 + LC1 (antibody, V domains shown)
VH: B1 VH with L5V, S49A, Y60F, A61V, S75A, T78S
VL: B1 VL
B5: hu CD45 HC4 + LC1 (antibody, V domains shown)
VH: B1 VH with L5V, Q13K, S75A, T78S
VL: B1 VL
B6: hu CD45 HC4 + LC4 (antibody, V domains shown)
VH: B1 VH with L5V, Q13K, S75A, T78S
VL: B2 VL
B7: hu CD45 HC2 + LC3 (antibody, V domains shown)
VH: B1 VH
VL: B3 VL
B8: hu CD45 HC3 + LC4 (antibody, V domains shown)
VH: B1 VH with L5V, S49A, Y60F, A61V, S75A, T78S
VL: B2 VL

Results on eight molecules are retold here after US20240301081A1.

Where a chain is given by its changes, count along the chain named.

For this assay, the target named is rhCD45 His tag (human) (UniProt P08575). The assay can be described thus: BLI (Octet HTX), compared with the parental antibody. (In general: Biolayer interferometry detects binding as a change in optical thickness at a sensor tip.)
UniProt P08575, sequence (P08575 26-577): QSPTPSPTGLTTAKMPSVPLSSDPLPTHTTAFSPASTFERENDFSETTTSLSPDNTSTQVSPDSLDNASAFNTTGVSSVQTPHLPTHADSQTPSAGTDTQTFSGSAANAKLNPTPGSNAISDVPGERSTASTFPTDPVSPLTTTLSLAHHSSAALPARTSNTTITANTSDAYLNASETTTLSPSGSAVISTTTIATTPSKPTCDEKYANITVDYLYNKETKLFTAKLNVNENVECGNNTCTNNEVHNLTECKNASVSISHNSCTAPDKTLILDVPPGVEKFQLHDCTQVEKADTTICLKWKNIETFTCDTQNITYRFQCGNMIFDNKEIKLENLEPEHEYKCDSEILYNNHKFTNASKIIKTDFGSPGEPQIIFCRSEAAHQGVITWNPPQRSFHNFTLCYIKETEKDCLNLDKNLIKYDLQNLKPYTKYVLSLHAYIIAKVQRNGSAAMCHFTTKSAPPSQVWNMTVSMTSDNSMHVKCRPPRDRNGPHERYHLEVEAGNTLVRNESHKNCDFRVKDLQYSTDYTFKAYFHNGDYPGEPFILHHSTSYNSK
Take B1: the fold change in KD relative to the parental antibody was less than 10 fold.
In the case of B2, the fold change in KD relative to the parental antibody is less than 10 fold.
Consider B3, for which the fold change in KD relative to the parental antibody was less than 10 fold.
B4: the fold change in KD relative to the parental antibody was less than 10 fold.
For B5, the fold change in KD relative to the parental antibody was less than 10 fold.
B6: the fold change in KD relative to the parental antibody is less than 10 fold.
For B7, the fold change in KD relative to the parental antibody is less than 10 fold.
As for B8, the fold change in KD relative to the parental antibody is less than 10 fold.
